The source of these data is the DeepSol protein solubility set.

This data set in a line: soluble on expression in E. coli; label from the status in PepcDB or PDB records.
On to “MSRQNPVRSTRGNSLRAREAQQAQDAPLFQESSSNVFVVEKVLNKRLTRGGSEYYIKWQGFPESECSWEPIENLQCDRMIQEYEKEAAKRTTRKRRYSPQPSTSSSAELQPSTSDEWAGKTLKTIIGITKAPGELHFLCKFSDDSVHLIPLREANVRFPSQVIKFYETRLVLQGVSPTIPGGMS”, for which the “soluble on expression in E. coli” value was “not soluble”.
Take “MTADANKSESLLCMDKAREAIKSGDTDKARRMLLKAKKLDPGQNIEFLTKKIDDMTNNTSSSSQTSSSRASEERSYAHDDHYDDPNLRNRKARSPVKKNGKTEPEPKQRSASRTPKLGVDYTSEQKELVERIRHCKDYYEILKIDKKASDDDIRKEYRKLALKLHPDKCRAPHATEAFKALGNAYAVLSDTDKRRQYDQYGAEAANSHTPTTRRRGGGHGAFFEHDYAHGFEAEFTPEEIFNMFFGGGFPTEQVRRRARYAQQQQYHHYEQQQSPYGPLLQLLPLIAIMVIGLLAQLMVGEPAYSLHQTSKFTIKRLTADLRVPYFVRTDFETSYRGRIRQVEQQVEDDYIQNLRMNCYKEQNLKETKLYRARWMRDEAMMRDAERTPLPSCIRLNEIYSH”: the “soluble on expression in E. coli” value was “soluble”.
Consider “MTTFRQHRWQSFLQGYEQRARILISCPDRPGIVAAVTSFLYEQGANIVESSQYSTDPEGGTFFLRLEFDCPNIAERKEEIEAAFAPIAAEFEMRWQLRLHNDIRRIAIFVSKAEHCLLELLWQWQAGELIADIALVISNHPDLRETVESFGIPYVHIPVTKETKADAEAEQIRLLRDYQIDTIVLARYMQILSPAFVAEFSGRIINIHHSFLPAFIGARPYERAYERGVKLIGATSHYVTDDLDEGPIIEQDVARVDHRHHPDDLKRIGRLIEKTVLARALRWHLEDRVIIHGNKTIVFY”, for which the “soluble on expression in E. coli” value is listed as “soluble”.
Regarding “MSLKIIIAGAGNVGTHLAKLLSREKQDIILMDDDEEKLSALSANFDLLTVTASPSSISGLKEVGVKEADLFIAVTPDESRNMTACMLATNLGAKKTVARIDNYEYLLPKNKEFFRKLGVDSLIYPEMLAAKEIVSSMRMSWVRQWWEFCGGALILIGTKMREKAEILNIPLHQLGAPDIPYHVVAIKRGTETIIPRGDDVIKLHDIVYFTTTRKYIPYIRKIAGKEDYADVRNVMIMGGSRIAVRTAQYVPDYMQVKIVDNDINRCNRLTELLDDKTMIINGDGRDMDLLIEEGLKNTEAFVALTDNSETNILACLAAKRMGVEKTVAEVENIDYIGMAESLDIGTVINKKMIAASHIYQMMLDADVSNVKCLTFANADVAEFTVPAGAKITKNLIKDLGLPKGTTIGGMIRNGEGVLVTGDTLIRPGDHVVVFCLSMMIKKIEKFFNEGHHHHHH”, the “soluble on expression in E. coli” value was “soluble”.
Consider “MSLLMTLVDEIKNRSSHVDAAIDELLPVTRPEELYKASRYLVDAGGKRLRPAVLILAAEAVGSNLRSVLPAAVAVELVHNFTLIHDDIMDRDDIRRGMPAVHVKWGEAGAILAGDTLYSKAFEILSKVENEPVRVLKCMDVLSKTCTEICEGQWLDMDFETRKKVTESEYLEMVEKKTSVLYAAAAKIGALLGGASDEVAEALSEYGRLIGIGFQMYDDVLDMTAPEEVLGKVRGSDLMEGKYTLIVINAFEKGVKLDIFGKGEATLEETEAAVRTLTECGSLDYVKNLAISYIEEGKEKLDVLRDCPEKTLLLQIADYMISREYEGHHHHHH”, for which the “soluble on expression in E. coli” value is “soluble”.
With “MSCCKECGHTLENVEVEAYEKRQVFDIPPVNLIVTEHKSQIKTCPHCGRINKAVFPESVKYPVQYGPNILASAIYCKNHHFIPYERISEFFEDIMGIKICPATIIRAEKECFQNLECFENIIREKLMTSYVVHFDETGMKIEGKRHWLHVASNDKYTCYLPHSKRGAEAIDAMGILPEFKGVAVHDGWKPYNVYDCDHAL” the entry was “not soluble”; with “MTDRGIVFNIQHFSIHDGPGIRTTVFLKGCPLRCPWCANPESQQKAPEQMLTSDGLNTKIVGEEKTVDEVIEEVLKDLDFYEESGGGMTLSGGEIFAQFDFALALLKAAKAAGLHTAIETTAFAKHEQFVTLVDYVDFIYTDLKHYNQLRHQKVTGVRNDLIIKNIHYAFQAGKEIVLRIPVIPQFNDSLDDAKAFSELFNQLEIDQVQLLPFHQFGENKYKLLGREYEMAEVKAYHPEDLADYQAVFLNHNIHCYF”, “not soluble”.
With “MMTDRTERRRRLTHAACTPSANNQRTTRLPPHPGFFSWSNPACDDGLFLYRTTVSRGVDTQRRRRSHPGFFSCRYHPSTVSLARRHRGPGKRISLRTEISKDADPISTVTETRWFLLNFQCIEPPLEHHHHHH” the entry was “soluble”.
